Test: yeast display, Sf9 membrane polyspecificity reagent, FACS + sequencing; frameworks hold sequencing errors
In short: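 Nanobodies from a synthetic yeast display library (Saccharomyces cerevisiae BJ5465), induced 36–48 hours with galactose, were stained 1 hour at 4 °C with 10% biotinylated, detergent-solubilized Sf9 membrane reagent, enriched on streptavidin microbeads, then FACS-sorted. Anti-HA (expression) and streptavidin (reagent binding) fluorescence set low and high (top ~1%) gates. Polyreactivity labels come from the gate of origin. Genes were colony-PCR amplified, MiSeq 2 × 250 sequenced and filtered by CDR length.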

With “QVQLVESGGGLVQAGGSLRLSCAASGFILSPNTMGWYRQAPGKERELVAAISSDVSTYADSVKGRFTISRDNAKNTVYLQMNSLKPEDTAVYYCNADDFGYASYEYWGQGTQVTVSS” as the sequence, how does the “polyreactivity (PSR sort gate)” value read?
The value was “low polyreactivity”.

Which “polyreactivity (PSR sort gate)” value does the source give for “QVQLVESGGGLVQAGGSLRLSCAASGFILSWYAMGWYRQAPGKERELVAGISRRGGSTYYADSVTGRFTISRDNAKNTVYLQMNSLKPEDTAVYYCNALYDDWSVSTGDYWGQGTQVTVSS” here?
Its value is “high polyreactivity”.

For “QVQLVESGGGLVQAGGSLRLSCAASGFILWPYAMGWYRQEPGKERELVAAITTGGSTNYADSVKGRFTISRDNAKNTVYLQMNSLKPEDTAVYYCAKGYYFGYYEFDYWGQGTQVTVSS”, which “polyreactivity (PSR sort gate)” value is on record?
Its value is “high polyreactivity”.

Which “polyreactivity (PSR sort gate)” value does the source give for “QVQLVESGGGLVQAGGSLRLSCAASGFILYYYAMGWYRQAPGIERELVAAISWSGDSTYYADSVKGRFTISRDNAKNTVYLQMNSLKPEDTAVYYCAATGQLTHRYYWGQGTQVTVSS” here?
Its value is “low polyreactivity”.

With “QVQLVESGGGLVQAGGSLRLSCAASGFIRYYAMGWYRNAHGKERELVAAITATGASTYYADSVKGRFTISRDNAKNTVYLQMNSLKPEDTAVYYCIVRLRISSGYWGQGTQVTVSS” as the sequence, how does the “polyreactivity (PSR sort gate)” value read?
Its value is “high polyreactivity”.

Which “polyreactivity (PSR sort gate)” value does the source give for “QVQLVESGGGLVQAGGSLRLSCAASGFISGKYAMGWNRQAPGKERELVATIRSGGSTNYADSVKGRFTISRDNAKNTVYLQMNSLKPEDTAVYYCAKRRGSRGVIYDYWGQGTQVTVSS” here?
Its value is “high polyreactivity”.

For “QVQLVESGGGLVQAGGSLRLSCAASGFISGYYTMRWYRQAPGKERELVAVINSGGSTYYADSVKGRFTISRDNAKNTVYLQMNSLKPEDTAVYYCAKLGGKYSRYYYWGQGTQVTVSS”, which “polyreactivity (PSR sort gate)” value is on record?
The value was “low polyreactivity”.

Which “polyreactivity (PSR sort gate)” value does the source give for “QVQLVESGGGLVQAGGSLRLSCAASGFISNGYAMGWYRQAPGKEREFVASISSSGGSTYYADSVKGRFTISRDIAKNTVYLQMNSLKTEDTAVYYCNARYWWVIKVKLGYWGQGTQVTVSS” here?
Its value is “low polyreactivity”.

Which “polyreactivity (PSR sort gate)” value does the source give for “QVQLVESGGGLVQAGGSLRLSCAASGFISSENAMGWYRQAPGKERELVAAISSGGSTNYADSVKGRFTISRDNAKNTVYLQMNSIKREDTAVYYCAATLPGWYNEDDSWGQGTQVTVSS” here?
Its value is “low polyreactivity”.

Which “polyreactivity (PSR sort gate)” value does the source give for “QVQLVESGGGLVQAGGSLRLSCAASGFISYENAMGWYRQAPGKERELVAAISSGGSTNYADSVKGRFTISRDNAKNTVYFQMNSLKPEDTAVYYCAATLPGWYNEDDSWGQGTQVTVSS” here?
Its value is “low polyreactivity”.

Which “polyreactivity (PSR sort gate)” value does the source give for “QVQLVESGGGLVQAGGSLRLSCAASGFISYFYTMGWYRPAPGKERELVAAISNTGDRTYYADSVKGRFTISRDNAKNTVYLQMNSLKPEDTAVYYCNAVVRGTYWQSFDYWGQGTQVTVSS” here?
The value was “high polyreactivity”.

With “QVQLVESGGGLVQAGGSLRLSCAASGFIVHTNTMGWYIQAPGKERELVAAMSSGGRTNYADSVKGRFTISRDNAKNTVYLQMNSLKPEDTAVYYCAADWHSWRWGYYYWGQGTQVTVSS” as the sequence, how does the “polyreactivity (PSR sort gate)” value read?
Its value is “low polyreactivity”.

Which “polyreactivity (PSR sort gate)” value does the source give for “QVQLVESGGGLVQAGGSLRLSCAASGFIVKRYARGWYRQAPGKERELVAAITSSGGRTYYADSVKGRFTISRDTAKNTVYLQMNSLKPEDTAVYYCAKGWSTYYTKMNYWGQGTQVTVSS” here?
The value was “high polyreactivity”.

Which “polyreactivity (PSR sort gate)” value does the source give for “QVQLVESGGGLVQAGGSLRLSCAASGFIYGFYVMGWYRQAPGKERELVAAITTSGDSTYYADSVKGRFTISRDNAKNTVFLQMNSLKPEDTAVYYCAADNVHSEYEYWGQGTQVTVSS” here?
The value was “high polyreactivity”.

For “QVQLVESGGGLVQAGGSLRLSCAASGFIYGTYAMGWYRQAPGKEREFVAAITRSGSSTYYADSVKGRFTISRDNAKNTVYLLMNSLKPEDTAVYYCAADLTRGRFRYYYWGLGTQVTVSS”, which “polyreactivity (PSR sort gate)” value is on record?
The value was “high polyreactivity”.

Which “polyreactivity (PSR sort gate)” value does the source give for “QVQLVESGGGLVQAGGSLRLSCAASGFIYHNAMGWYRQAPGKERELVARITWSGGSTSYADSVKGRFTISRDNAKNTVYLQMTSLKPEETAVYYCAARGVVYRYGASRGYWGQGTQVTVSS” here?
Its value is “high polyreactivity”.

For “QVQLVESGGGLVQAGGSLRLSCAASGFLFGWNAMGGYRQAPGKERELVAAISARGGSTSYADSVKGRFTISRDTAKNTVYLQMNSLKPEDTAVYYCSAKSAFPLDYWGQGTQVTVSS”, which “polyreactivity (PSR sort gate)” value is on record?
The value was “high polyreactivity”.

Which “polyreactivity (PSR sort gate)” value does the source give for “QVQLVESGGGLVQAGGSLRLSCAASGFLFVVYTMGWYRQAPGKERELVAAITSGGSTYYADSVKGRFTISRDNAKNTVYLQMNSLKPEDTAVYYCNALASRYPAYYYWGQGTQVTVSS” here?
The value was “low polyreactivity”.

Which “polyreactivity (PSR sort gate)” value does the source give for “QVQLVESGGGLVQAGGSLRLSCAASGFNFADNAMGWYRQAPGKEREFVAAISRSGGTTYYADSVKGRFTISRDNAKNTVYLQMNSLKPEDTAVYYCATRLTSYPDYDYWGQGTQVTLSS” here?
Its value is “low polyreactivity”.

For “QVQLVESGGGLVQAGGSLRLSCAASGFNFASYAMGWYRQAPGKERELVAAISWRGGSTYYADSVKGRFTISRDNAKNTVYLQMNSLKPEDTAVYYCNAYVYVGTGRGYDTLDYWGQGTQVTLSS”, which “polyreactivity (PSR sort gate)” value is on record?
Its value is “low polyreactivity”.

Which “polyreactivity (PSR sort gate)” value does the source give for “QVQLVESGGGLVQAGGSLRLSCAASGFNFDGNALGWYRPAPGKERELVAAIRSGGRTNYADSVKGRFTISRDNAKNTVYLQMNSLKPEDTAVYYCAARSIYPYYYRRDNRYYYWGQGTQVTVSS” here?
The value was “high polyreactivity”.

For “QVQLVESGGGLVQAGGSLRLSCAASGFNFGCYCMGWYIQAPGKERELVAAITWSGVRTYYADSVKGRFTISRDNAKNTVYLQMNSLKPEDTAVYYCAASGEGGYLENNEFDYWGQGTQVTVSS”, which “polyreactivity (PSR sort gate)” value is on record?
Its value is “low polyreactivity”.

Which “polyreactivity (PSR sort gate)” value does the source give for “QVQLVESGGGLVQAGGSLRLSCAASGFNFGGYAMGWYRQAPGKERELVARITRSGGSTYYADSVKGRFTISRDNAKNTVYLQMNSLKPEDTAVYYCNADTPPNPYYYWGQGTQVTVSS” here?
The value was “low polyreactivity”.

For “QVQLVESGGGLVQAGGSLRLSCAASGFNFGINAMGWYRQAPGKEREWVAAINQSGDRTYYADSVKGRFTISRDNAKNTVYLQMNSLNPEDTEVYYCASLSTYRTWYGDWGQGTQVTVSS”, which “polyreactivity (PSR sort gate)” value is on record?
Its value is “high polyreactivity”.

For “QVQLVESGGGLVQAGGSLRLSCAASGFNFGWYAMGWYRQAPGKERELVAAISGRGGSTNYADSVKGRFTISRDNAKNTVYLQMNSLKPEDTAVYYCNAALSPWGNNYWGQGTQVSVSS”, which “polyreactivity (PSR sort gate)” value is on record?
The value was “high polyreactivity”.

With “QVQLVESGGGLVQAGGSLRLSCAASGFNFSYNAMGWYRQAPGKERELTYADSVKGRFTISRDNAKNTVYLQMNSLKLEDTAVYYCAAGEYGRQYDGDYWGQGTQVTVSS” as the sequence, how does the “polyreactivity (PSR sort gate)” value read?
The value was “low polyreactivity”.

For “QVQLVESGGGLVQAGGSLRLSCAASGFRLNAMGWYRQAPGKERELVAAITASGGSTYYADSVKGRFTISRDNAKNTVYLQMNSQKPEDTAVYYCARYHPVRGYNYWGQGTQVTVSS”, which “polyreactivity (PSR sort gate)” value is on record?
The value was “high polyreactivity”.

Which “polyreactivity (PSR sort gate)” value does the source give for “QVQLVESGGGLVQAGGSLRLSCAASGFSFDSNAMGWYRQAPGKERELVAVITSSGGRTYYADSVKGRFTISRDNAKNTVYLQMNSLKPEDTAVYYCAAAKKFFWYEYDYWGQGTQVSVSS” here?
Its value is “high polyreactivity”.

For “QVQLVESGGGLVQAGGSLRLSCAASGFSFRYYAMGWYRQAPGKERELVAAISSGGNTRYADSVKGRFTISRDNAKNTVYLQMNSLKPEDTAVYYCARRPGAWKYVYTGDYWGQGTQVTVSS”, which “polyreactivity (PSR sort gate)” value is on record?
The value was “high polyreactivity”.

Which “polyreactivity (PSR sort gate)” value does the source give for “QVQLVESGGGLVQAGGSLRLSCAASGFSFSRNTMGWYRQAPGKDRELVATIDRGGRTNYADSVKGRFTISRDNAKNTVYLQMNSLKPEDTAVFYCNAYWRRFPQYDYWGLGTQVTVSS” here?
The value was “high polyreactivity”.

Which “polyreactivity (PSR sort gate)” value does the source give for “QVQLVESGGGLVQAGGSLRLSCAASGFTAYGYAMGWYRQAPGQERELVAAISRSGGSTYYADSVKGRFTISRDNAKNTVYLQMYSLKPDDTAVYYCAVAVGREYVYRYYYWGQGTQVTVSS” here?
The value was “high polyreactivity”.

For “QVQLVESGGGLVQAGGSLRLSCAASGFTCLFYDMGWYRQAPGKERELVASITWSGTSTYADSVKGRFTISRDNAINTVYLQMNSLKPEDTAVYYCNAEPHGVKVSYDYWGQGTQVTVSS”, which “polyreactivity (PSR sort gate)” value is on record?
Its value is “low polyreactivity”.

For “QVQLVESGGGLVQAGGSLRLSCAASGFTFAAYDKGWSRQAPGKELELVAAITKSGASTYYADSVKGRFTISRDIAKNTFYLQMNSLKPEDTAVYYCAAKNTLYSYYYWGQGTQVTVSS”, which “polyreactivity (PSR sort gate)” value is on record?
The value was “high polyreactivity”.

Which “polyreactivity (PSR sort gate)” value does the source give for “QVQLVESGGGLVQAGGSLRLSCAASGFTFADNAMGWYRQATGKERELVAAISWNGGRTFYADSVKGRFTISRDNAKNTVYLQMNSLKPEDSAVYYCNAVFIVRKYTGWSTGEGYWGQGTQVTVSS” here?
Its value is “high polyreactivity”.

For “QVQLVESGGGLVQAGGSLRLSCAASGFTFAGNAMGWYRKAPGKERELVAGISRRGGNTYYADSVKGRFTISRDIAKNTVYLQMNSLKPEDTAVYYCARYSSSYWGQGTQVTVSS”, which “polyreactivity (PSR sort gate)” value is on record?
Its value is “high polyreactivity”.

For “QVQLVESGGGLVQAGGSLRLSCAASGFTFAGYAMGWYRQAPGKERELVAVITSSDSTYYADSVKGLFTISRDNAKNTDYLQMNSLKPEDTAVYYSAVRSYVNWWSIVKYDYWGQGTQVTVSS”, which “polyreactivity (PSR sort gate)” value is on record?
The value was “low polyreactivity”.

For “QVQLVESGGGLVQAGGSLRLSCAASGFTFAHYAMGWYRPAPGKERELVAAISGSGSSTYYADSVKGRFTISRDYAKNSVYLKMNSLKPEDTAVYYCNVRWYFLYYYWGQGTQVTVSS”, which “polyreactivity (PSR sort gate)” value is on record?
Its value is “low polyreactivity”.

For “QVQLVESGGGLVQAGGSLRLSCAASGFTFAKNAMGWYRQAPGKERELVADITYSGGSTYADSVKGRFTISRDNAKNTVYLQMNSLKPEETAVYYCAADARRRSGYDYWGQGTQVSVSS”, which “polyreactivity (PSR sort gate)” value is on record?
The value was “low polyreactivity”.

For “QVQLVESGGGLVQAGGSLRLSCAASGFTFAKYAMGWYRQAPGKERELVAAIRSRGDTTYYADSVKGRFTISRDNAKNTVYFQLNSLKPEDTAVYYCSARSYFLVDGSRYDYCGQGTQVTVSS”, which “polyreactivity (PSR sort gate)” value is on record?
The value was “high polyreactivity”.

With “QVQLVESGGGLVQAGGSLRLSCAASGFTFAPYAMGWYRQAPGKERELVATIRSSGGRTYYADSVKGRFTISRDNAKNTVYLQMNSLKPEDTAVYYCAATGVYTKNPRGMDYWGQGTKVTVSS” as the sequence, how does the “polyreactivity (PSR sort gate)” value read?
Its value is “high polyreactivity”.

For “QVQLVESGGGLVQAGGSLRLSCAASGFTFARNGMGWYRQAPGKEREFVAAITRSGGRTYYADSVKGRFTISRDNAKNTVYLQMNSLKPEDTAVYYCAAGYRGIGMNYWGQGTQVTVSS”, which “polyreactivity (PSR sort gate)” value is on record?
The value was “high polyreactivity”.

For “QVQLVESGGGLVQAGGSLRLSCAASGFTFARNVMGWYRQAPGKERELVAAITTSGGSTYYADSVKGRFTISRDNAKNTVYLQMKSLKPEDTAVYYCARRVYGYYIPYNYWGQGTQVTVSS”, which “polyreactivity (PSR sort gate)” value is on record?
Its value is “high polyreactivity”.

With “QVQLVESGGGLVQAGGSLRLSCAASGFTFARYAMGWYRQAPGKERELVAAIIWSGGRTYYADSVKGRFTISRDTAKNTVYLQMNSLKPEDTAVYYCNAWGLFYYSSGYDYWGQGTQVTVSS” as the sequence, how does the “polyreactivity (PSR sort gate)” value read?
Its value is “high polyreactivity”.

— the nanobody polyreactivity screen of Harvey et al. (2022)
